# Experiment: soluble on expression in E. coli; label from the status in PepcDB or PDB records
row,Sequence,soluble on expression in E. coli
1,MHKAGLLGLCARAWNSVRMASSGMTRRDPLANKVALVTASTDGIGFAIARRLAQDGAHVVVSSRKQQNVDQAVATLQGEGLSVTGTVCHVGKAEDRERLVATAVKLHGGIDILVSNAAVNPFFGSIMDVTEEVWDKTLDINVKAPALMTKAVVPEMEKRGGGSVVIVSSIAAFSPSPGFSPYNVSKTALLGLTKTLAIELAPRNIRVNCLAPGLIKTSFSRMLWMDKEKEESMKETLRIRRLGEPEDCAGIVSFLCSEDASYITGETVVVGGGTPSRL,not soluble
2,SKELKVLVLCAGSGTSAQLANAINEGANLTEVRVIANSGAYGAHYDIMGVYDLIILAPQVRSYYREMKVDAERLGIQIVATRGMEYIHLTKSPSKALQFVLEHYQ,not soluble
3,MAQLFFRYGAMNSGKTIEILKVAHNYEEQDKSVIILTSGLDNRDGVGYVASRIGLKREATPVFDDTNIFEIVKQTNPDAACVLIDEAQFLKKHHVLELADIVDELKIPVMTFGLKNDFRNELFEGSKYLLLYADKIEEMKTICWFCRKKAIMNLRFHDGQPVYEGEQVQIGGNEAYYPVCRHHYFYPPKLTKLEHHHHHH,soluble
4,MSGLPCNERMDCTQCPKAVENSIHYTHNKKGFHLPPHKCETNILFFLLKGQILINSEEYAGTIINSGEFVLQAIASKVEILAMTDSEGILYTFDDPKAFCYDRYTYILKNVPPPLISEPLKIKPEIKLFLEGVASYLNADKICKELLEFKRKELYYLLAHYYTDYELSPVVHSLSQYTSSFEYFILKHHKQIKSVEEFAQLGGYSVTTFRRIFKAIFNEPAYEWMMKQRKESILYQLRYTDASISEICFGHGFESLSHFSNFCKKSFGDSPRNIRKKEKEEISPNT,not soluble
5,MKPDAHHVKQFLLRLQDDICQTLSAVDGANFVEDSWRREAGGGGRSRVLRNGGIFEQAGVNFSHVHGDAMPASATAHRPELAGRSFEAMGVSLVVHPHNPYIPTSHANVRFFIAEKPGADPVWWFGGGFDLTPYYGFEEDAVHWHRTARDLCQPFGDDVYPRYKKWCDDYFFLKHRNEQRGVGGLFFDDLNTPDFDHCFDFMQAVGNGYTRAYLPIVERRKAMVWGERERNFQLYRRGRYVEFNLVWDRGTLFGLQTGGRTESILMSMPPLVRWEYDWQPEAGSPEAALSEFIQVRDWILEHHHHHH,soluble
6,MAHHHHHHMVLLWVDAEQYGVASSLGLSDDAKYPAFVIARGEDHFVHPSTEPVTAESIEKFIIEYSEKKLSPEIKSQPVPEIETVEGLTTVVGKTLDKYLSSGKDMLIEFFAPWCGHCKNLAPIYAKVAKEFESSDVIIAAMDATANQVDNSLFDVSGFPTIYFVPHGGKPIVYDGGRTFYEIYKFVHEHSSTLKDVPIPEEVKREEEKNGDYDDL,soluble
7,MGSDKIHHHHHHMSVLNAKECVSPITRSVKYHQQSAEIRALQLQSYKMAKMALDNNLKLVKDKKPAVILDLDETVLNTFDYAGYLIKNCIKYTPETWDKFEKEGSLTLIPGALDFLEYANSKGVKIFYISNRTQKNKAFTLKTLKSFKLPQVSEESVLLKEKGKPKAVRRELVAKDYAIVLQVGDTLHDFDAIFAKDAKNSQEQRAKVLQNAQKFGTEWIILPNSLYGTWEDEPIKAWQNKK,not soluble
8,KQLEKDLLASAETLQRERHQIANALESEIKTELCDLYMDKADFKVVFTKGKFNRDGNEQVEFYISTNPGEGFKPLVKVASGGELSRLMLAIKSAFARKEDKTSIVFDEVDTGVSGRVAQAIAQKIHKIGSYGQVLAISHLPQVIAIADYQFFISKESDNETTVSRVRLLTPEERVEEIAKMLAGDNLTDAALSQARALLKVDEPV,not soluble
9,MTEPKEERRERRMSSPIMPENMSDFDLIVGEIEAENGAEGSFQRAAECFKLIEDRVSEDPDLSEIMENIRMNQGCEVSGMSTGLSSTATTVSSKMASQWISHMKRSFKRRAICLSEEQQSAMRKMVTEELYTQHGPADLAVRDILLLYSRGLEAHHDGRYREMFERLRPCIPYFNTNVLVWIRISEALIYEYYEETWEFNDIYDRLFEKQPHHYMPSVRRRCNEMRPRHPDMTLRFAETATLMCFALAKQSSREPVHYAAAALHGFMLLKLRKYSEAIEAVNFAVERYDRAGEWQDDLAILLTYKAEGMIGIGRYNRAIEYALRVMNAAKCARARQRATMLVVMAYMRKRNYLKAHEYVIKLLKEGKLDEVMLENVALLGLNLAHLMGNMKLFKRFESMLQRIVY,not soluble
10,SEMIGGDDTDTEMYGALVTAQSLRLRHLHHCRENQCTSVLVKYIQAPVHLVWSLVRRFDQPQKYKPFISRCTVNGDPEIGCLREVNVKSGLPATTSTERLEQLDDEEHILGINIIGGDHRLKNYSSILTVHPEMIDGRSGTMVMESFVVDVPQGNTKDDTCYFVESLIKCNLKSLACVSERLAAQDITNSIATFCNASNGYREKNHTETNL,soluble
